Our source for the proliferation of Ba/F3-gp130:IL-11R:LIFR cells (CellTiter Blue), GIL-11 0.0005–500 ng/ml; EC50 values is publication PMC10105715.

The assay deals with non-natural gp130:IL-11R:LIFR cytokine receptor complex on Ba/F3-gp130:IL-11R:LIFR cells (UniProt P40189).
non-natural gp130:IL-11R:LIFR cytokine receptor complex on Ba/F3-gp130:IL-11R:LIFR cells, sequence (P40189 23-918, chain 1 of 3): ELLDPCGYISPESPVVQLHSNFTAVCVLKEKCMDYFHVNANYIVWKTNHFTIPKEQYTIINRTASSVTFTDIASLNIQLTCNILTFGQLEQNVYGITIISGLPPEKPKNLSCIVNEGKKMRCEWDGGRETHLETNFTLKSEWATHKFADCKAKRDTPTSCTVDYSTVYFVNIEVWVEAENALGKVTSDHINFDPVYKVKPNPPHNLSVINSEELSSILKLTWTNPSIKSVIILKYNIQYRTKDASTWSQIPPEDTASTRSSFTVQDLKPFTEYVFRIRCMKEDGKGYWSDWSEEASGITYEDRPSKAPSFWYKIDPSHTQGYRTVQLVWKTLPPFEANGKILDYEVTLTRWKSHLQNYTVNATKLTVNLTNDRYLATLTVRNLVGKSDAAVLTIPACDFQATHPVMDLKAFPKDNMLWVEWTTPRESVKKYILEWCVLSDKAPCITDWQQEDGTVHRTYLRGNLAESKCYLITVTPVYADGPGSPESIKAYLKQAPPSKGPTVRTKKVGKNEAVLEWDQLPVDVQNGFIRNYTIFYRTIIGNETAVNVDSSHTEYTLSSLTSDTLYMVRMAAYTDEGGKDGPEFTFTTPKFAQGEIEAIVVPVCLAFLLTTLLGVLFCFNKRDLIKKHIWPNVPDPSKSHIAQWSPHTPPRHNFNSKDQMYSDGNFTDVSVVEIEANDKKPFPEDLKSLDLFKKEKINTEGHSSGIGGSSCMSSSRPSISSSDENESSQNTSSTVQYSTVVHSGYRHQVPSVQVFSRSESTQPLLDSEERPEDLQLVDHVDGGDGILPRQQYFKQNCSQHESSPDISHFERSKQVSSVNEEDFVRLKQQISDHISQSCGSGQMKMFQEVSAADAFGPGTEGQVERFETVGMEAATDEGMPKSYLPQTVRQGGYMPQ
non-natural gp130:IL-11R:LIFR cytokine receptor complex on Ba/F3-gp130:IL-11R:LIFR cells, sequence (Q14626 23-422, chain 2 of 3, further chain): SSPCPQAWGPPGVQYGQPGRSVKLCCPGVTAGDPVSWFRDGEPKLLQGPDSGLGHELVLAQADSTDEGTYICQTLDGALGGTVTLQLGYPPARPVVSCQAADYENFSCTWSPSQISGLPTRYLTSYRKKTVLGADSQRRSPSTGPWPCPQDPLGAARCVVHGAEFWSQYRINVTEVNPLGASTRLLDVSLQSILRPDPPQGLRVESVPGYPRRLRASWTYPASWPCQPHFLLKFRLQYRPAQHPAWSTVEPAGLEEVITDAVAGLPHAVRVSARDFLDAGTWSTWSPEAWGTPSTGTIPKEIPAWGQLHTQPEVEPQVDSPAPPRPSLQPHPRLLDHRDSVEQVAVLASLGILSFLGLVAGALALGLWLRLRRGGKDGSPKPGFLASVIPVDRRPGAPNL
non-natural gp130:IL-11R:LIFR cytokine receptor complex on Ba/F3-gp130:IL-11R:LIFR cells, sequence (P42702 45-1097, chain 3 of 3, further chain): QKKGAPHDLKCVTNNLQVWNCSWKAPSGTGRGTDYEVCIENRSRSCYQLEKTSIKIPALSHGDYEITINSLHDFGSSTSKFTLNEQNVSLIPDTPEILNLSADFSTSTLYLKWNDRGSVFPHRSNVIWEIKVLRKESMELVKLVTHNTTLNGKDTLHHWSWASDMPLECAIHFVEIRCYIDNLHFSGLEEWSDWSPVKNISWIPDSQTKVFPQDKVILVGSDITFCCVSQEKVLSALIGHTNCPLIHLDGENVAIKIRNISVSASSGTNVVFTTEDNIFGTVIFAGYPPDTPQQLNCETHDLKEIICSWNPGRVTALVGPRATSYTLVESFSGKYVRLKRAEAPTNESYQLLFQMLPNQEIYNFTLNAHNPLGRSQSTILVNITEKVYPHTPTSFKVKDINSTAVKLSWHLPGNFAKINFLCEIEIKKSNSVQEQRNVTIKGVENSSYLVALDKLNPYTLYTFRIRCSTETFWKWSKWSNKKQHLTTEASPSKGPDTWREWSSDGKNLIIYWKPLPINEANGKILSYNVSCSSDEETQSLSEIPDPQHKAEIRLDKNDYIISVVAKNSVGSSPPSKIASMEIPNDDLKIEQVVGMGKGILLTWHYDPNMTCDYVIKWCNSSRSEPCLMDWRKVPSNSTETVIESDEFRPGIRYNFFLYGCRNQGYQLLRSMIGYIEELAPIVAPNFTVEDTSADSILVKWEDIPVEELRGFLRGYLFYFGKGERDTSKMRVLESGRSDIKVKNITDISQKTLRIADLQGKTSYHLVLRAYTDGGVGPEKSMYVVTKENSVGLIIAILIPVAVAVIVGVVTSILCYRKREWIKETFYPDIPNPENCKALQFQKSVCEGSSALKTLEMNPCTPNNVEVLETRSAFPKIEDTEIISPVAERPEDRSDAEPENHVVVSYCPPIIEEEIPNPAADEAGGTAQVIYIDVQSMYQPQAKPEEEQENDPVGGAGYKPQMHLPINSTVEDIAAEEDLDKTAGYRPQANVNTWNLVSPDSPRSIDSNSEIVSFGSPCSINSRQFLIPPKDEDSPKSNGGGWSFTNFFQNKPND

“cytokimera GIL-11 (from UniProt P20809 22-57; P15018 64-88; P20809 73-110; P15018 119-138; P20809 129-161; P15018 172-189; P20809 180-199) (ligand)” showed a proliferation of Ba/F3-gp130:IL-11R:LIFR cells (CellTiter Blue), GIL-11 0.0005–500 ng/ml; EC50 of 1.44 ng/mL.
